The values below come from patent publication US11203633B2, “Polynucleotides encoding antibodies or antigen binding fragments thereof that bind pseudomonas perv” (priority 2011, dated 2021).

The test system of assay [1] is P. aeruginosa (6077 exoU+; 6206) lysis of rabbit red blood cells. Nature of the assay: Rabbit red blood cell (RBC) lysis inhibition assay. The conditions noted are these: strain 6077; FIG. 12D-E. The format is cell-based, Pseudomonas aeruginosa. On the procedure: Percent inhibition of cytotoxicity analysis was analysed for the parental V2L2 mAb, mAb166 (positive control) and R347 (negative control), where the antibodies were administered to cultured broncho-epithelial cell line A549 combined with log-phase P. aeruginosa strain 6077 (exoU+) at a MOI of approximately 10. A549 lysis was assayed by measuring released lactate dehydrogenase (LDH) activity and lysis in the presence of mAbs was compared to wells without mAb to determine percent inhibition. The V2L2 mAb, mAb166 (positive control) and R347 (negative control) were evaluated for their ability to prevent lysis of RBCs, where the antibodies were mixed with log-phase P. aeruginosa 6077 (exoU^+) and washed rabbit red blood cells (RBCs) and incubated for 2 hours at 37°. Intact RBCs were pelleted and the extent of lysis determined by measuring the OD405 of the cell-free supernatant. Lysis in the presence of anti-PcrV mAbs was compared to wells without mAb to determine percent inhibition. The positive control antibody, mAb166, is a previously characterized anti-PcrV antibody (J Infect Dis. 186: 64-73 (2002), Crit Care Med. 40: 2320-2326 (2012)).

For the next assay, the target named is rPcrV protein. The assay is described as follows: Binding kinetics, Bio-Rad ProteOn XPR36. Also on record: species or system Pseudomonas aeruginosa. The conditions noted are these: antibody captured, rPcrV injected; FIG. 12G-H. As for the experimental part:
Binding kinetics of V2L2-GL and V2L2-MD were measured using a Bio-Rad ProteOn™ XPR36 instrument. Antibodies were captured on a GLC bisensor chip using anti-human IgG reagents. rPcrV protein was injected at multiple concentrations and the dissociation phase followed for 600 seconds. Data was captured and analyzed using ProteOn Manager software. […] The clone V2L2-MD had increased Kd by 2-3 folds over V2L2-GL.

B1: V2L2-MD: optimized V2L2-GL mAb; germlined lead optimized anti-PcrV antibody (antibody, V domains shown)
VH: EMQLLESGGGLVQPGGSLRLSCAASGFTFSSYAMNWVRQAPGEGLEWVSAITISGITAYYTDSVKGRFTISRDNSKNTLYLQMNSLRAGDTAVYYCAKEEFLPGTHYYYGMDVWGQGTTVTVSS
VL: AIQMTQSPSSLSASVGDRVTITCRASQGIRNDLGWYQQKPGKAPKLVIYSASTLQSGVPSRFSGSGSGTDFTLSISSLQPDDFATYYCLQDYNYPWTFGQGTKVEIK
modifications: V2L2-MD VH; V2L2-MD and V2L2-GL VL
Turning to B1, the “prevention of RBC lysis” value in assay [1] was “demonstrated prevention of RBC lysis”. Also, the “change of Kd over V2L2-GL” value on rPcrV protein was 2-3 folds.
